Measured values published in patent US20230357364A1.

Target: SARS-CoV-2 spike D614G (pseudovirus) (SARS-CoV-2) (UniProt P0DTC2)
Test: cell-based or functional assay

Substance	PSV in HeLa-ACE2 cells IC50 [µg/mL]
REGN10933 (antibody)	0.009
REGN10987 (antibody)	0.019
